# The supplement of paper PMC9112550, “Optimization of the antimicrobial peptide Bac7 by deep mutational scanning” (BMC Biology, 2022)
# Tested on: Escherichia coli TOP10
# Test: shrunken log2 fold change of peptide-encoding DNA abundance (4.5 h post-induction vs induction); higher = less antimicrobial activity (less host growth inhibition)
# Conditions: time post-induction: 4.5 h; library: site-saturation at positions 5, 18, 19, 20
# 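Note: peptides expressed intracellularly from a pBAD plasmid library in pooled LB shake-flask culture, induced with 0.3% L-arabinose, DNA abundance read by NGS, three biological replicates, DESeq2 with apeglm shrinkage.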
row,Sequence,shrunken log2 fold change
1,RRIRDRPPRLPRPRPRPLLGPRP,0.356
2,RRIRDRPPRLPRPRPRPLLLPRP,0.468
3,RRIRDRPPRLPRPRPRPLLRPRP,0.0308
4,RRIRDRPPRLPRPRPRPLLYPRP,0.116
5,RRIRDRPPRLPRPRPRPLMEPRP,0.117
6,RRIRDRPPRLPRPRPRPLMVPRP,-0.186
7,RRIRDRPPRLPRPRPRPLRNPRP,0.767
8,RRIRDRPPRLPRPRPRPLSDPRP,0.125
9,RRIRDRPPRLPRPRPRPLTQPRP,0.0757
10,RRIRDRPPRLPRPRPRPLVDPRP,0.11
11,RRIRDRPPRLPRPRPRPLWAPRP,0.0876
12,RRIRDRPPRLPRPRPRPLYQPRP,-0.0432
13,RRIRDRPPRLPRPRPRPMDTPRP,-0.0196
14,RRIRDRPPRLPRPRPRPMECPRP,0.0176
15,RRIRDRPPRLPRPRPRPMEMPRP,0.0165
16,RRIRDRPPRLPRPRPRPMFVPRP,-0.0355
17,RRIRDRPPRLPRPRPRPMGKPRP,3.67
18,RRIRDRPPRLPRPRPRPMGLPRP,-0.00663
19,RRIRDRPPRLPRPRPRPMHQPRP,0.126
20,RRIRDRPPRLPRPRPRPMKTPRP,-0.00973
21,RRIRDRPPRLPRPRPRPMMPPRP,-0.00348
22,RRIRDRPPRLPRPRPRPMMWPRP,0.156
23,RRIRDRPPRLPRPRPRPMNVPRP,0.0651
24,RRIRDRPPRLPRPRPRPMPEPRP,0.0845
25,RRIRDRPPRLPRPRPRPMSDPRP,1.13

row,Sequence,shrunken log2 fold change
1,RRIRDRPPRLPRPRPRPMSGPRP,-0.0837
2,RRIRDRPPRLPRPRPRPMSMPRP,0.017
3,RRIRDRPPRLPRPRPRPMSRPRP,-0.107
4,RRIRDRPPRLPRPRPRPMTHPRP,0.0105
5,RRIRDRPPRLPRPRPRPMTMPRP,-0.00418
6,RRIRDRPPRLPRPRPRPMYNPRP,-0.354
7,RRIRDRPPRLPRPRPRPNARPRP,0.299
8,RRIRDRPPRLPRPRPRPNCTPRP,0.476
9,RRIRDRPPRLPRPRPRPNEHPRP,-0.0707
10,RRIRDRPPRLPRPRPRPNEVPRP,0.0348
11,RRIRDRPPRLPRPRPRPNFRPRP,0.267
12,RRIRDRPPRLPRPRPRPNFYPRP,-0.109
13,RRIRDRPPRLPRPRPRPNGDPRP,-0.00931
14,RRIRDRPPRLPRPRPRPNHAPRP,-0.31
15,RRIRDRPPRLPRPRPRPNHGPRP,1.15
16,RRIRDRPPRLPRPRPRPNHLPRP,0.000895
17,RRIRDRPPRLPRPRPRPNHYPRP,-0.459
18,RRIRDRPPRLPRPRPRPNIHPRP,-0.214
19,RRIRDRPPRLPRPRPRPNITPRP,-0.289
20,RRIRDRPPRLPRPRPRPNKHPRP,-0.425
21,RRIRDRPPRLPRPRPRPNMGPRP,0.102
22,RRIRDRPPRLPRPRPRPNMRPRP,-0.00803
23,RRIRDRPPRLPRPRPRPNPAPRP,0.0831
24,RRIRDRPPRLPRPRPRPNPFPRP,-0.343
25,RRIRDRPPRLPRPRPRPNPGPRP,-0.117

row,Sequence,shrunken log2 fold change
1,RRIRDRPPRLPRPRPRPNPIPRP,-0.132
2,RRIRDRPPRLPRPRPRPNPNPRP,-0.136
3,RRIRDRPPRLPRPRPRPNREPRP,-0.00168
4,RRIRDRPPRLPRPRPRPNRSPRP,0.0428
5,RRIRDRPPRLPRPRPRPNSTPRP,-0.295
6,RRIRDRPPRLPRPRPRPNTFPRP,-0.0294
7,RRIRDRPPRLPRPRPRPNVFPRP,-0.268
8,RRIRDRPPRLPRPRPRPNVSPRP,-0.00783
9,RRIRDRPPRLPRPRPRPNWCPRP,0.0171
10,RRIRDRPPRLPRPRPRPNYRPRP,-0.152
11,RRIRDRPPRLPRPRPRPPAHPRP,0.56
12,RRIRDRPPRLPRPRPRPPCVPRP,0.152
13,RRIRDRPPRLPRPRPRPPDDPRP,0.535
14,RRIRDRPPRLPRPRPRPPDLPRP,0.201
15,RRIRDRPPRLPRPRPRPPDMPRP,0.123
16,RRIRDRPPRLPRPRPRPPEHPRP,-0.0245
17,RRIRDRPPRLPRPRPRPPESPRP,0.822
18,RRIRDRPPRLPRPRPRPPIFPRP,-0.129
19,RRIRDRPPRLPRPRPRPPIKPRP,-0.204
20,RRIRDRPPRLPRPRPRPPIWPRP,0.305
21,RRIRDRPPRLPRPRPRPPKFPRP,-0.154
22,RRIRDRPPRLPRPRPRPPKWPRP,0.27
23,RRIRDRPPRLPRPRPRPPLGPRP,0.547
24,RRIRDRPPRLPRPRPRPPLLPRP,0.252
25,RRIRDRPPRLPRPRPRPPMIPRP,-0.588
